Experimental data published in the supplement of paper PMC9112550, “Optimization of the antimicrobial peptide Bac7 by deep mutational scanning” (BMC Biology, 2022).

System: Escherichia coli TOP10
Experiment: shrunken log2 fold change of peptide-encoding DNA abundance (4.5 h post-induction vs induction); higher = less antimicrobial activity (less host growth inhibition)
Conditions: time post-induction: 4.5 h; library: site-saturation at positions 5, 18, 19, 20
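Further: peptides expressed intracellularly from a pBAD plasmid library in pooled LB shake-flask culture, induced with 0.3% L-arabinose, DNA abundance read by NGS, three biological replicates, DESeq2 with apeglm shrinkage.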

Sequence | shrunken log2 fold change
RRIRNRPPRLPRPRPRPDVCPRP | -0.00695
RRIRNRPPRLPRPRPRPDVIPRP | -0.135
RRIRNRPPRLPRPRPRPDVLPRP | -0.0481
RRIRNRPPRLPRPRPRPDVWPRP | -0.0172
RRIRNRPPRLPRPRPRPDWDPRP | -0.108
RRIRNRPPRLPRPRPRPDWQPRP | 0.184
RRIRNRPPRLPRPRPRPDWVPRP | 0.134
RRIRNRPPRLPRPRPRPDYCPRP | -0.00677
RRIRNRPPRLPRPRPRPDYEPRP | -0.00884
RRIRNRPPRLPRPRPRPEACPRP | 0.0475
RRIRNRPPRLPRPRPRPEASPRP | 0.0343
RRIRNRPPRLPRPRPRPEFGPRP | -0.106
RRIRNRPPRLPRPRPRPEINPRP | 0.0636
RRIRNRPPRLPRPRPRPEKSPRP | 0.31
RRIRNRPPRLPRPRPRPEMWPRP | -0.0348
RRIRNRPPRLPRPRPRPENDPRP | 0.0164
RRIRNRPPRLPRPRPRPENSPRP | -0.00522
RRIRNRPPRLPRPRPRPEPSPRP | 0.145
RRIRNRPPRLPRPRPRPEPWPRP | 0.0625
RRIRNRPPRLPRPRPRPEQMPRP | -0.0261
RRIRNRPPRLPRPRPRPERFPRP | 0.128
RRIRNRPPRLPRPRPRPERRPRP | 0.237
RRIRNRPPRLPRPRPRPESDPRP | 0.648
RRIRNRPPRLPRPRPRPETCPRP | 0.262
RRIRNRPPRLPRPRPRPETIPRP | -0.0777

Sequence | shrunken log2 fold change
RRIRNRPPRLPRPRPRPEVIPRP | 0.00635
RRIRNRPPRLPRPRPRPEVPPRP | 0.095
RRIRNRPPRLPRPRPRPEYMPRP | -0.0146
RRIRNRPPRLPRPRPRPFDEPRP | -0.305
RRIRNRPPRLPRPRPRPFDRPRP | 0.0368
RRIRNRPPRLPRPRPRPFHNPRP | -0.12
RRIRNRPPRLPRPRPRPFIWPRP | -0.741
RRIRNRPPRLPRPRPRPFIYPRP | -0.856
RRIRNRPPRLPRPRPRPFLGPRP | -0.00194
RRIRNRPPRLPRPRPRPFNWPRP | -0.123
RRIRNRPPRLPRPRPRPFRDPRP | 0.0452
RRIRNRPPRLPRPRPRPFSMPRP | -0.00235
RRIRNRPPRLPRPRPRPFVGPRP | -0.182
RRIRNRPPRLPRPRPRPFVMPRP | -0.0984
RRIRNRPPRLPRPRPRPFWVPRP | 0.0863
RRIRNRPPRLPRPRPRPFYDPRP | 0.18
RRIRNRPPRLPRPRPRPFYKPRP | -0.575
RRIRNRPPRLPRPRPRPFYVPRP | -0.181
RRIRNRPPRLPRPRPRPGCWPRP | 0.55
RRIRNRPPRLPRPRPRPGDGPRP | 0.292
RRIRNRPPRLPRPRPRPGDRPRP | 0.0819
RRIRNRPPRLPRPRPRPGEIPRP | 0.627
RRIRNRPPRLPRPRPRPGEKPRP | -0.01
RRIRNRPPRLPRPRPRPGFDPRP | 0.189
RRIRNRPPRLPRPRPRPGFKPRP | -0.171

Sequence | shrunken log2 fold change
RRIRNRPPRLPRPRPRPGFVPRP | 0.135
RRIRNRPPRLPRPRPRPGHCPRP | -0.062
RRIRNRPPRLPRPRPRPGPFPRP | 0.00962
RRIRNRPPRLPRPRPRPGREPRP | 0.588
RRIRNRPPRLPRPRPRPGSKPRP | 0.00175
RRIRNRPPRLPRPRPRPGSNPRP | -0.0081
RRIRNRPPRLPRPRPRPGTNPRP | -0.0826
RRIRNRPPRLPRPRPRPGWRPRP | 0.564
RRIRNRPPRLPRPRPRPGYVPRP | -0.077
RRIRNRPPRLPRPRPRPHAYPRP | 0.00658
RRIRNRPPRLPRPRPRPHCRPRP | 0.00914
RRIRNRPPRLPRPRPRPHDRPRP | -0.146
RRIRNRPPRLPRPRPRPHDSPRP | -0.0662
RRIRNRPPRLPRPRPRPHERPRP | -0.13
RRIRNRPPRLPRPRPRPHEYPRP | -0.048
RRIRNRPPRLPRPRPRPHFGPRP | -0.104
RRIRNRPPRLPRPRPRPHFHPRP | -0.529
RRIRNRPPRLPRPRPRPHHAPRP | -0.0601
RRIRNRPPRLPRPRPRPHIIPRP | 0.0166
RRIRNRPPRLPRPRPRPHINPRP | -1.02
RRIRNRPPRLPRPRPRPHIWPRP | -0.0306
RRIRNRPPRLPRPRPRPHKFPRP | -0.231
RRIRNRPPRLPRPRPRPHKRPRP | -0.263
RRIRNRPPRLPRPRPRPHNCPRP | -0.0167
RRIRNRPPRLPRPRPRPHRAPRP | 0.264

Sequence | shrunken log2 fold change
RRIRNRPPRLPRPRPRPHRNPRP | -0.176
RRIRNRPPRLPRPRPRPHVLPRP | -0.245
RRIRNRPPRLPRPRPRPIACPRP | -0.00434
RRIRNRPPRLPRPRPRPIAHPRP | -0.0737
RRIRNRPPRLPRPRPRPIAQPRP | -0.00164
RRIRNRPPRLPRPRPRPICYPRP | -0.818
RRIRNRPPRLPRPRPRPIEAPRP | 0.0895
RRIRNRPPRLPRPRPRPIGAPRP | 0.235
RRIRNRPPRLPRPRPRPIHIPRP | -0.58
RRIRNRPPRLPRPRPRPIHPPRP | 0.135
RRIRNRPPRLPRPRPRPIIWPRP | -0.139
RRIRNRPPRLPRPRPRPIKCPRP | -0.0141
RRIRNRPPRLPRPRPRPILFPRP | -0.396
RRIRNRPPRLPRPRPRPILSPRP | -0.00144
RRIRNRPPRLPRPRPRPIMIPRP | -0.363
RRIRNRPPRLPRPRPRPIMMPRP | -0.103
RRIRNRPPRLPRPRPRPIMWPRP | 0.137
RRIRNRPPRLPRPRPRPINQPRP | -0.14
RRIRNRPPRLPRPRPRPINVPRP | -0.0327
RRIRNRPPRLPRPRPRPIPYPRP | -0.0122
RRIRNRPPRLPRPRPRPIREPRP | -0.0204
RRIRNRPPRLPRPRPRPIRHPRP | -0.0817
RRIRNRPPRLPRPRPRPIRRPRP | -0.163
RRIRNRPPRLPRPRPRPISMPRP | -0.0881
RRIRNRPPRLPRPRPRPIWTPRP | -0.115

Sequence | shrunken log2 fold change
RRIRNRPPRLPRPRPRPIYHPRP | -0.526
RRIRNRPPRLPRPRPRPIYPPRP | -0.246
RRIRNRPPRLPRPRPRPKAHPRP | 0.18
RRIRNRPPRLPRPRPRPKAIPRP | -0.0372
RRIRNRPPRLPRPRPRPKDEPRP | 0.536
RRIRNRPPRLPRPRPRPKFHPRP | -0.078
RRIRNRPPRLPRPRPRPKFMPRP | -0.0904
RRIRNRPPRLPRPRPRPKGTPRP | 0.118
RRIRNRPPRLPRPRPRPKHEPRP | 0.13
RRIRNRPPRLPRPRPRPKIWPRP | 0.0854
RRIRNRPPRLPRPRPRPKIYPRP | -0.0429
RRIRNRPPRLPRPRPRPKKKPRP | 0.011
RRIRNRPPRLPRPRPRPKLAPRP | 0.0921
RRIRNRPPRLPRPRPRPKLFPRP | 0.371
RRIRNRPPRLPRPRPRPKLYPRP | -0.289
RRIRNRPPRLPRPRPRPKMVPRP | -0.13
RRIRNRPPRLPRPRPRPKSNPRP | -0.294
RRIRNRPPRLPRPRPRPKVPPRP | -0.129
RRIRNRPPRLPRPRPRPKWGPRP | 0.147
RRIRNRPPRLPRPRPRPKWKPRP | 0.0263
RRIRNRPPRLPRPRPRPKWWPRP | 0.0325
RRIRNRPPRLPRPRPRPKYRPRP | -0.0413
RRIRNRPPRLPRPRPRPLCAPRP | 0.194
RRIRNRPPRLPRPRPRPLCFPRP | -0.461
RRIRNRPPRLPRPRPRPLCTPRP | -0.194

Sequence | shrunken log2 fold change
RRIRNRPPRLPRPRPRPLEGPRP | 0.033
RRIRNRPPRLPRPRPRPLFHPRP | -0.595
RRIRNRPPRLPRPRPRPLFPPRP | 0.643
RRIRNRPPRLPRPRPRPLLIPRP | 0.589
RRIRNRPPRLPRPRPRPLLMPRP | -0.421
RRIRNRPPRLPRPRPRPLMAPRP | 0.176
RRIRNRPPRLPRPRPRPLNKPRP | -0.256
RRIRNRPPRLPRPRPRPLQAPRP | -0.0119
RRIRNRPPRLPRPRPRPLRQPRP | 0.154
RRIRNRPPRLPRPRPRPLSRPRP | -0.124
RRIRNRPPRLPRPRPRPLTSPRP | -0.0977
RRIRNRPPRLPRPRPRPLVTPRP | 0.0322
RRIRNRPPRLPRPRPRPLWSPRP | -0.0388
RRIRNRPPRLPRPRPRPLWWPRP | 0.605
RRIRNRPPRLPRPRPRPMAFPRP | -0.192
RRIRNRPPRLPRPRPRPMAHPRP | -0.0456
RRIRNRPPRLPRPRPRPMAKPRP | 0.0197
RRIRNRPPRLPRPRPRPMARPRP | 0.0994
RRIRNRPPRLPRPRPRPMCWPRP | 0.327
RRIRNRPPRLPRPRPRPMDWPRP | -0.0484
RRIRNRPPRLPRPRPRPMELPRP | -0.182
RRIRNRPPRLPRPRPRPMERPRP | 0.019
RRIRNRPPRLPRPRPRPMGVPRP | 0.165
RRIRNRPPRLPRPRPRPMISPRP | -0.0707
RRIRNRPPRLPRPRPRPMKFPRP | -0.000903
